# Measurements reported in publication PMC6751169, “Modular enzyme assembly for enhanced cascade biocatalysis and metabolic flux” (Nature Communications, 2019).
# B1: MenD (2-succinyl-5-enolpyruvyl-6-hydroxy-3-cyclohexadiene-1-carboxylate synthase), untagged (enzyme, E. coli, UniProt P17109 1-556, looked up)
# chain: MSVSAFNRRWAAVILEALTRHGVRHICIAPGSRSTPLTLAAAENSAFIHHTHFDERGLGHLALGLAKVSKQPVAVIVTSGTAVANLYPALIEAGLTGEKLILLTADRPPELIDCGANQAIRQPGMFASHPTHSISLPRPTQDIPARWLVSTIDHALGTLHAGGVHINCPFAEPLYGEMDDTGLSWQQRLGDWWQDDKPWLREAPRLESEKQRDWFFWRQKRGVVVAGRMSAEEGKKVALWAQTLGWPLIGDVLSQTGQPLPCADLWLGNAKATSELQQAQIVVQLGSSLTGKRLLQWQASCEPEEYWIVDDIEGRLDPAHHRGRRLIANIADWLELHPAEKRQPWCVEIPRLAEQAMQAVIARRDAFGEAQLAHRICDYLPEQGQLFVGNSLVVRLIDALSQLPAGYPVYSNRGASGIDGLLSTAAGVQRASGKPTLAIVGDLSALYDLNALALLRQVSAPLVLIVVNNNGGQIFSLLPTPQSERERFYLMPQNVHFEHAAAMFELKYHRPQNWQELETAFADAWRTPTTTVIEMVVNDTDGAQTLQQLLAQVSHL
# notes: MenD, 2-succinyl-5-enolpyruvyl-6-hydroxy-3-cyclohexadiene-1-carboxylate synthase, E. coli; subunit 63 kDa; 'Untagged' means without RIAD or RIDD; also called untagged MenD; non-tagged enzyme
# Target: the molecule itself
# Experiment: not stated; oligomeric state of the untagged enzymes; the sentence points to Supplementary Figs. 1 and 2
protein,measurement,value
B1,stoichiometry N,4
